Measurements from publication PMC4595974.

Target: Aβ42 fibrils (fibrillar Aβ(M1-42))
Assay: SPR

Substance: Brichos domain from proSP-C (lung surfactant C precursor protein) (domain or fragment)
- Kd: 0.04 µM
